Measured values taken from patent US5604198A, “Method to enhance permeability of the blood/brain blood/nerve barriers to therapeutic agents” (priority 1994, dated 1997).

Legend:
[1] = rat; for Relative increase of PS vs ALB, blood nerve barrier / Relative increase of Vp vs ALB, blood nerve barrier / Residual endoneurial plasma volume (Vp) of the blood nerve barrier / PS values across the blood nerve and blood brain barrier: in vivo; for Permeability coefficient-surface area product (PS) of the blood nerve barrier: not told, iv
Protocol: (§1) Male Sprague-Dawley rats (24-weeks-old) (460-500 g) were obtained from Bio Lab (St. Paul) and were used to determine the PS and Vp measurements. All animals were kept for a minimum of 3 days under standard housing conditions and feeding schedules prior to the experiments.
Briefly, a bolus of PBS containing ^125 I labelled carrier molecule was injected rapidly into the catheterized brachial vein of pentobarbital anesthetized rats. Blood was sampled during the next 30, 60, or 240 minutes from the brachial artery, depending on the carrier molecule being evaluated. Prior to the sacrifice of the animal at time sequences of 60 or 120 seconds, the second isotope-labelled carrier molecule (^131 I) was administered intravenously to serve as the residual plasma volume indicator (Vp).
After the final blood sample was collected, the sciatic nerves were rapidly removed and desheathed. Similarly, the brain was removed followed by the meninges. The brain was dissected into the cortex, caudal putamen, hippocampus, thalamus, brain stem, and cerebellum. The tissue was then lyophilized, and the dry weight was determined with a microbalance. These weights were then converted to their respective wet weights with wet weight/dry weight ratios previously determined for desheathed rat sciatic nerve and for the different brain regions. Tissue and plasma samples were assayed for ^125 I and ^131 I radioactivity in a 2-channel gamma counter. Radioactivity was corrected for crossover of ^131 I activity into the ^125 I channel and background activity. The Vp and PS measurements were calculated as described previously in Poduslo et al., Proc. Natl. Acad. Sci. U.S.A., 89, 2218 (1992). […] Statistical evaluations were done using Student's two-tailed paired t-test. Significance was accepted at the p<0.05 level.

[2] = rat, in vivo
Protocol: as §1
Briefly, a bolus of PBS containing ^125 I labelled carrier molecule was injected rapidly into the catheterized brachial vein of pentobarbital anesthetized rats. Blood was sampled during the next 30, 60, or 240 minutes from the brachial artery, depending on the carrier molecule being evaluated. […]
After the final blood sample was collected, the sciatic nerves were rapidly removed and desheathed. […] The tissue was then lyophilized, and the dry weight was determined with a microbalance. These weights were then converted to their respective wet weights with wet weight/dry weight ratios previously determined for desheathed rat sciatic nerve and for the different brain regions. Tissue and plasma samples were assayed for ^125 I and ^131 I radioactivity in a 2-channel gamma counter. Radioactivity was corrected for crossover of ^131 I activity into the ^125 I channel and background activity. The Vp and PS measurements were calculated as described previously in Poduslo et al., Proc. Natl. Acad. Sci. U.S.A., 89, 2218 (1992). […]

| Substance | Relative increase of PS vs ALB, blood nerve barrier [1] | Relative increase of Vp vs ALB, blood nerve barrier [1] | Residual endoneurial plasma volume (Vp) of the blood nerve barrier [1] [µL/g] | Permeability coefficient-surface area product (PS) of the blood nerve barrier [1] [ml/g/sec × 10^6] | PS values across the blood nerve and blood brain barrier [1] | PS values in the different brain regions [2] | Vp values in the different brain regions [2] [µL/g] |
| --- | --- | --- | --- | --- | --- | --- | --- |
| calmodulin | 211.3 | 0.9 | 1.66 ± 0.32 | 21.34 ± 3.40 | – | – | – |
| ceruloplasmin | 82.4 | 1.0 | 1.98 ± 0.38 | – | 1-10 ×10^-6 ml/g/sec | – | – |
| cytochrome c | 73.6 | 1.0 | 1.96 ± 0.32 | 7.43 ± 3.68 | 1-10 ×10^-6 ml/g/sec | – | – |
| hemoglobin | 65.3 | 1.0 | 1.91 ± 0.35 | 6.60 ± 1.33 | 1-10 ×10^-6 ml/g/sec | – | – |
| lysozyme | 66.4 | 1.3 | 2.57 ± 0.52 | 6.71 ± 1.65 | 1-10 ×10^-6 ml/g/sec | – | – |
| substance P [SP] | – | – | 14.87 ± 3.53 | – | – | 27.68-36.53 ×10^-6 ml/g/s | 11.03 to 21.29 |
| ubiquitin | 228.9 | 0.9 | 1.84 ± 0.51 | – | – | – | – |
